For one molecule, Kd results are on record in PMC12520543, “An Apple Susceptibility‐Related LRR Receptor‐Like Kinase MdRLKT21 Activates Plant Immunity by Hijacking a Trans‐Kingdom Fungal microRNA‐Like RNA” (Advanced Science, 2025).

The target of this assay is T1, GST-MdRFP1-His (apple (M. domestica), labeled with the Monolith NT Protein Labeling Kit RED).
T1 construct: MdRFP1, apple C3HC4-type RING finger protein 1, GenBank XP_017184215.2; Vector pGEX-6P-1; The results name GST-MdRFP1-His for the MST; the MST methods say only 'MdRFP1 was purified and labeled'; also called labeled MdRFP1; source: E. coli BL21 (DE3), purified (glutathione agarose and HisPur Ni-NTA resin are named for the set of recombinant proteins); not shown: GST, N-terminal, kept; His, …
T1 sequence (main, as listed by the source): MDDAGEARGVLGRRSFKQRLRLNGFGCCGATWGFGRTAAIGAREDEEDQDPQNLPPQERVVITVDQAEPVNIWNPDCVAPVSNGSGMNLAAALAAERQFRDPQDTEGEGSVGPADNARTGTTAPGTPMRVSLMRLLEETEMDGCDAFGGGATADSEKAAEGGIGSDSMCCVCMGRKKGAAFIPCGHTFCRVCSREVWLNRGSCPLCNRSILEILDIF
Nature of the assay: MST; labeled MdRFP1 (Monolith NT Protein Labeling Kit RED) incubated with a gradient dilution of MdRLKT21-KD for 30 min at RT; standard treated capillaries; Monolith NT.115. The following applies: both partners purified.

B1: GST-MdRLKT21-KD (domain or fragment)
chain: RVRSRAKEGKTGKEKVVKEVAEVVVVEEGEGQNGKFVVLDEGFGLDLEDLLRASAYVVGKSRSGITYRVVAGSGGKGPGAAPSVVAVRRLSEGDATWRLKEFEAEVEAIGKVVHPNIVRLRAYYYASDEKLLVTDFIRNGSLYNALHGGPSNSLPPLPWTARLKIAQGTARGLMYIHEHSTRKYVHGNIKSTKILLNDDLQPYISGFGLARLMLGTSKFTTSASRRQNSNESIVASGLVVPTSSTIYLAPEARISRSKFTQKCDVYSFGIVLLEILTGRLPDEGLENGGKGLESLVRKTFRDERPLSEIIDPALLQEVYAKKQVVEAFHIALNCTELDPELRPRMKTVSESLDRLKLQC
For the molecule B1, the Kd came out at 14 ± 4.24 nM.

The term Kd denotes a measure of binding affinity in units of concentration. High values mean lower affinity, low ones higher affinity.
